Laboratory results from the supplement of paper PMC10567573.

B1: TMEM106C (parent)
chain: FTGRDSITCLTCQGTGYIPTEQVN
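Note: lentivirally expressed fusions sorted by FACS into six bins by GFP to DsRed ratio, PSI derived from sequencing read proportions per bin multiplied by bin number.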

Variants of: B1
Assay: protein stability index of a GFP-peptide fusion (GPS, HEK-293T) (PSI 1-6); higher = more stable
Settings: c terminus: a fixed tail appended
With FTGRDSITCLLCQGTGYIPTEQVN [T11L] the protein stability index was 1.66. FTGRDSITCLFCQGTGYIPTEQVN [T11F] gave a protein stability index of 2.85. Work on FTGRDSITCLNCQGTGYIPTEQVN [T11N] yielded a protein stability index of 1.86. FTGRDSITCLVCQGTGYIPTEQVN [T11V] gave a protein stability index of 2.66. With FTGRDSITCLPCQGTGYIPTEQVN [T11P] the protein stability index was 1.55. Work on FTGRDSITCLWCQGTGYIPTEQVN [T11W] yielded a protein stability index of 2.97. Work on FTGRDSITCLICQGTGYIPTEQVN [T11I] yielded a protein stability index of 1.52. For FTGRDSITCLECQGTGYIPTEQVN [T11E], the protein stability index was 2.01. In the case of FTGRDSITCLMCQGTGYIPTEQVN [T11M], the protein stability index is reported as 1.77. In the case of FTGRDSITCLCCQGTGYIPTEQVN [T11C], the protein stability index is reported as 1.86. For FTGRDSITCLHCQGTGYIPTEQVN [T11H], the protein stability index was 2.06. FTGRDSITCLRCQGTGYIPTEQVN [T11R] showed a protein stability index of 1.97. For FTGRDSITCLSCQGTGYIPTEQVN [T11S], the protein stability index was 2.01. With FTGRDSITCLQCQGTGYIPTEQVN [T11Q] the protein stability index was 1.85. Variant FTGRDSITCLGCQGTGYIPTEQVN [T11G] has a protein stability index of 1.64. FTGRDSITCLYCQGTGYIPTEQVN [T11Y] gave a protein stability index of 2.07. For FTGRDSITCLKCQGTGYIPTEQVN [T11K], the protein stability index was 1.7. FTGRDSITCLDCQGTGYIPTEQVN [T11D] gave a protein stability index of 2.42. Work on FTGRDSITCLTCQGTGYLPTEQVN [I18L] yielded a protein stability index of 2.55. Work on FTGRDSITCLTCQGTGYDPTEQVN [I18D] yielded a protein stability index of 1.96. In the case of FTGRDSITCLTCQGTGYPPTEQVN [I18P], the protein stability index is reported as 1.58. Variant FTGRDSITCLTCQGTGYYPTEQVN [I18Y] has a protein stability index of 1.68. For FTGRDSITCLTCQGTGYNPTEQVN [I18N], the protein stability index was 1.61. Work on FTGRDSITCLTCQGTGYCPTEQVN [I18C] yielded a protein stability index of 1.91. In the case of FTGRDSITCLTCQGTGYWPTEQVN [I18W], the protein stability index is reported as 1.86. With FTGRDSITCLTCQGTGYFPTEQVN [I18F] the protein stability index was 1.86. FTGRDSITCLTCQGTGYRPTEQVN [I18R] gave a protein stability index of 2.57. FTGRDSITCLTCQGTGYTPTEQVN [I18T] gave a protein stability index of 3.01. For FTGRDSITCLTCQGTGYGPTEQVN [I18G], the protein stability index was 1.48. Work on FTGRDSITCLTCQGTGYEPTEQVN [I18E] yielded a protein stability index of 1.53. In the case of FTGRDSITCLTCQGTGYSPTEQVN [I18S], the protein stability index is reported as 2.09. FTGRDSITCLTCQGTGYVPTEQVN [I18V] showed a protein stability index of 1.64. FTGRDSITCLTCQGTGYAPTEQVN [I18A] showed a protein stability index of 1.93. Variant FTGRDSITCLTCQGTGYQPTEQVN [I18Q] has a protein stability index of 2. Variant FTGRDSITCLTCQGTGYHPTEQVN [I18H] has a protein stability index of 2.4. Variant FTGRDSITCLTCQGTGYMPTEQVN [I18M] has a protein stability index of 2.78. With FTGRDSITCLTCQGTGYKPTEQVN [I18K] the protein stability index was 1.82. FTGRDSITCLTCQGTGYIATEQVN [P19A] gave a protein stability index of 2.04. FTGRDSITCLTCQGTGYIGTEQVN [P19G] showed a protein stability index of 1.63. Work on FTGRDSITCLTCQGTGYICTEQVN [P19C] yielded a protein stability index of 2.29. In the case of FTGRDSITCLTCQGTGYIFTEQVN [P19F], the protein stability index is reported as 2.43. FTGRDSITCLTCQGTGYIVTEQVN [P19V] showed a protein stability index of 2.67. With FTGRDSITCLTCQGTGYISTEQVN [P19S] the protein stability index was 2.23. With FTGRDSITCLTCQGTGYIDTEQVN [P19D] the protein stability index was 1.76. Work on FTGRDSITCLTCQGTGYINTEQVN [P19N] yielded a protein stability index of 1.96. FTGRDSITCLTCQGTGYIHTEQVN [P19H] showed a protein stability index of 2.35. With FTGRDSITCLTCQGTGYIETEQVN [P19E] the protein stability index was 2.02. Variant FTGRDSITCLTCQGTGYIRTEQVN [P19R] has a protein stability index of 1.26. With FTGRDSITCLTCQGTGYIYTEQVN [P19Y] the protein stability index was 1.78. Variant FTGRDSITCLTCQGTGYILTEQVN [P19L] has a protein stability index of 2.29. For FTGRDSITCLTCQGTGYITTEQVN [P19T], the protein stability index was 2.21. FTGRDSITCLTCQGTGYIWTEQVN [P19W] gave a protein stability index of 2.29. In the case of FTGRDSITCLTCQGTGYIQTEQVN [P19Q], the protein stability index is reported as 2.05. FTGRDSITCLTCQGTGYIMTEQVN [P19M] gave a protein stability index of 2.15. Work on FTGRDSITCLTCQGTGYIKTEQVN [P19K] yielded a protein stability index of 2. Variant FTGRDSITCLTCQGTGYIITEQVN [P19I] has a protein stability index of 1.84. Variant FTGRDSITCLTCQGTGYIPIEQVN [T20I] has a protein stability index of 1.99. With FTGRDSITCLTCQGTGYIPPEQVN [T20P] the protein stability index was 1.74. FTGRDSITCLTCQGTGYIPNEQVN [T20N] showed a protein stability index of 1.8. Variant FTGRDSITCLTCQGTGYIPCEQVN [T20C] has a protein stability index of 1.83. In the case of FTGRDSITCLTCQGTGYIPSEQVN [T20S], the protein stability index is reported as 2.07. FTGRDSITCLTCQGTGYIPFEQVN [T20F] showed a protein stability index of 1.89. For FTGRDSITCLTCQGTGYIPREQVN [T20R], the protein stability index was 2.27. Variant FTGRDSITCLTCQGTGYIPEEQVN [T20E] has a protein stability index of 1.66. FTGRDSITCLTCQGTGYIPWEQVN [T20W] showed a protein stability index of 1.71. FTGRDSITCLTCQGTGYIPAEQVN [T20A] gave a protein stability index of 2.11. Variant FTGRDSITCLTCQGTGYIPKEQVN [T20K] has a protein stability index of 1.92. With FTGRDSITCLTCQGTGYIPMEQVN [T20M] the protein stability index was 1.93. FTGRDSITCLTCQGTGYIPQEQVN [T20Q] gave a protein stability index of 2.65. FTGRDSITCLTCQGTGYIPHEQVN [T20H] gave a protein stability index of 1.92. With FTGRDSITCLTCQGTGYIPYEQVN [T20Y] the protein stability index was 2.17. In the case of FTGRDSITCLTCQGTGYIPGEQVN [T20G], the protein stability index is reported as 1.45. FTGRDSITCLTCQGTGYIPVEQVN [T20V] showed a protein stability index of 2.23. With FTGRDSITCLTCQGTGYIPDEQVN [T20D] the protein stability index was 2.56. For FTGRDSITCLTCQGTGYIPLEQVN [T20L], the protein stability index was 2.19. For FTGRDSITCLTNQGTGYIPTEQVN [C12N], the protein stability index was 2.18. With FTGRDSITCLTEQGTGYIPTEQVN [C12E] the protein stability index was 2.18. For FTGRDSITCLTYQGTGYIPTEQVN [C12Y], the protein stability index was 2.06. FTGRDSITCLTGQGTGYIPTEQVN [C12G] showed a protein stability index of 2.04. Work on FTGRDSITCLTWQGTGYIPTEQVN [C12W] yielded a protein stability index of 2.51. FTGRDSITCLTFQGTGYIPTEQVN [C12F] showed a protein stability index of 2.34. In the case of FTGRDSITCLTVQGTGYIPTEQVN [C12V], the protein stability index is reported as 1.83. In the case of FTGRDSITCLTPQGTGYIPTEQVN [C12P], the protein stability index is reported as 1.68. Variant FTGRDSITCLTLQGTGYIPTEQVN [C12L] has a protein stability index of 1.79. With FTGRDSITCLTMQGTGYIPTEQVN [C12M] the protein stability index was 2.09. In the case of FTGRDSITCLTQQGTGYIPTEQVN [C12Q], the protein stability index is reported as 1.95. In the case of FTGRDSITCLTAQGTGYIPTEQVN [C12A], the protein stability index is reported as 2.17. FTGRDSITCLTHQGTGYIPTEQVN [C12H] showed a protein stability index of 1.98. Work on FTGRDSITCLTDQGTGYIPTEQVN [C12D] yielded a protein stability index of 2.41. Variant FTGRDSITCLTSQGTGYIPTEQVN [C12S] has a protein stability index of 2. For FTGRDSITCLTKQGTGYIPTEQVN [C12K], the protein stability index was 2. Variant FTGRDSITCLTRQGTGYIPTEQVN [C12R] has a protein stability index of 1.85. With FTGRDSITCLTIQGTGYIPTEQVN [C12I] the protein stability index was 2.4. Work on FTGRDSITCLTTQGTGYIPTEQVN [C12T] yielded a protein stability index of 1.63.
